# From patent US20250144275A1, “SYSTEM AND METHOD FOR COATING MEDICAL CONDUIT WITH PARTICLES AND USE THEREOF” (UNIVERSITY OF PITTSBURGH - OF THE COMMONWEALTH SYSTEM OF …, priority 2022, published 2025)
# Test system: facial nerve of Lewis rats
# Test: Histological processing of muscle, mystacial pad and buccal branch nerve
# Format: in vivo
# Details: mystacial pad, qualitative, 12-week endpoint
# Description: This study was performed on the facial nerve of Lewis rats (Charles River, Wilmington, MA). Institutional approval was obtained before performing the study, and all animal procedures and housing were performed under the guidelines of the University of Pittsburgh Institutional Animal Care and Use Committee and in compliance with animal experimentation ethics policies.
# Surgical procedures. Rats were placed under general anesthesia and maintained with Isoflurane. Preauricular/buccal incision lines were marked (FIG. 8A) and the nerve branches were exposed (FIG. 8B). A 5 mm segment of the marginal mandibular branch was removed to prevent cross-innervation contribution to the whisker movement^41. The buccal branch was then transected, and the resultant 2 mm defect was primarily repaired with 9-0 nylon sutures. […]
# Histological processing. […] For the muscles, the mean muscle fiber pixel area was calculated from brightfield staining. […] Cross-sections of the main buccal branch distal to the injury site were analyzed for the number of axons. For S100, sections of the nerve distal and proximal to the transection and repair site were quantified separately and the ratio was used for comparison. All samples were blinded before quantification.
molecule,measurement,value
"GDNF: Recombinant human GDNF protein (R&D Systems), active agent of the microspheres (protein, UniProt P39905 78-211, looked up, in microspheres) Glial cell line-derived …: SPDKQMAVLPRRERNRQAAAANPENSRGKGRRGQRGKNRGCVLTAIHLNVTDLGLGYETKEELIFRYCSGSCDAAETTYDKILKNLSRNRRLVSDKVGQACCRPIAFDDDLSFLDDNLVYHILRKHSAKRCGCI",local adverse effects on whisker pad and intrinsic vibrissae muscles (morphology),no local adverse effects
